Measurements as given in paper PMC5053885.

Target: Karyopherin-β2 (human) (UniProt Q92973)
Experiment: ITC

Chain of UniProt Q92973 (Q92973 9-898): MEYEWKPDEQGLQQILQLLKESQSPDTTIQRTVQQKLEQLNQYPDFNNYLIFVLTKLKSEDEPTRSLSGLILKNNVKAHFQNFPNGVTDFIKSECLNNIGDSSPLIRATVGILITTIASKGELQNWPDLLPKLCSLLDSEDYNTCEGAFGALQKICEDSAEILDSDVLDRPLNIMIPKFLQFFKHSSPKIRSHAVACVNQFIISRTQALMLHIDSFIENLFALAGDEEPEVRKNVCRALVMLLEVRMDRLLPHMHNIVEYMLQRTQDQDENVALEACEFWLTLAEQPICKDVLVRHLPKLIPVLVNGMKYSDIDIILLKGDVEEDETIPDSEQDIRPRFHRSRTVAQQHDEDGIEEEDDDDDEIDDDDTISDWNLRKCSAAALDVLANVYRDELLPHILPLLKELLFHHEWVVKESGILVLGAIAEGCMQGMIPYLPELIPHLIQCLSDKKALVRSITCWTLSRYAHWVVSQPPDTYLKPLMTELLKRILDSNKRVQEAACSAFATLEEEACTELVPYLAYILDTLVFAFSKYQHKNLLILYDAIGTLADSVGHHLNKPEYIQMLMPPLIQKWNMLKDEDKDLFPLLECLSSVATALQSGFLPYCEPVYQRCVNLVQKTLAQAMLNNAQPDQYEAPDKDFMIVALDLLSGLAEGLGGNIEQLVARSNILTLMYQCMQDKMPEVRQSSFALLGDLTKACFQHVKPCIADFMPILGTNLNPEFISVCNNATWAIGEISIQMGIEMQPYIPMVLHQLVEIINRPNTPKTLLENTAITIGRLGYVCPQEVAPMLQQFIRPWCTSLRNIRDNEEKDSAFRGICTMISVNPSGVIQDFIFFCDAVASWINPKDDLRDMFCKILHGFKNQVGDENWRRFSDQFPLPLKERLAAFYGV

Row | Substance | Kd [nM]
1 | MBP-H3 Tail(1–47) K23A (from UniProt P68431 2-48) (domain or fragment) | 148
2 | MBP-H3 Tail(1–47) K23A, R26A, K27A (from UniProt P68431 2-48) (domain or fragment) | 119
3 | MBP-H3 Tail(1–47) wild-type (from UniProt P68431 2-48) (domain or fragment) | 77.1

Results, then the substance that gave them:

Row | Kd [nM] | Substance
4 | 120 | MBP-H3 Tail(1–47) K18A (from UniProt P68431 2-48) (domain or fragment)
5 | 133 | MBP-H3 Tail(1–47) K27A (from UniProt P68431 2-48) (domain or fragment)
6 | 389 | MBP-H3 Tail(1–47) R17A (from UniProt P68431 2-48) (domain or fragment)
7 | 122 | MBP-H3 Tail(1–47) R26A (from UniProt P68431 2-48) (domain or fragment)
